Like-named read-outs stand apart in the source and are kept apart here.
Experiments:
[1] = system: PARP; assay: Immunoblotting, apoptosis signaling, NCI-N87 and BxPC-3; type: cell-based, human; conditions: evident at 24 h, increased at 48 h
Protocol: Immunoblotting—Cells (2×10^6) were plated in 6-well plates overnight. […] Parental hRS7 was used as a control for the ADC. Cells were lysed in buffer containing 10 mM Tris, pH 7.4, 150 mM NaCl, protease inhibitors and phosphatase inhibitors (2 mM […], 10 mM NaF). A total of 20 μg protein was resolved in a 4-20% SDS polyacrylamide gel, transferred onto a nitrocellulose membrane and blocked by 5% non-fat milk in 1×TBS-T (Tris-buffered saline, 0.1% Tween-20) for 1 h at room temperature. Membranes were probed overnight at 4° C. with primary antibodies followed by 1-h incubation with antirabbit secondary antibody (1:2500) at room temperature. Signal detection was done using a chemiluminescence kit (Supersignal West Dura, Thermo Scientific; Rockford, IL) with the membranes visualized on a Kodak Image Station […]. Primary antibodies p21Waf1/Cip1 (Cat. No. 2947), Caspase-3 (Cat. No. 9665), Caspase-7 (Cat. No. 9492), Caspase-9 (Cat. No. 9502), PARP (Cat. No. 9542), 3-actin (Cat. No. 4967), pJNK1/2 (Cat. No. 4668), JNK (Cat. No. 9258), and goat anti-rabbit-HRP secondary antibody (Cat. No. 7074) were obtained from Cell Signal Technology (Danvers, MA).

[2] = system: diverse metastatic cancers
Protocol: To optimize cumulative treatment with minimal delays, phase II is focusing on 8 and 10 mg/kg (n=30 and 14, respectively).
Two ELISA methods were used to measure the clearance of the IgG (capture with anti-hRS7 idiotype antibody) and the intact conjugate (capture with anti-SN-38 IgG/probe with anti-hRS7 idiotype antibody). SN-38 was measured by HPLC.

[3] = system: Capan-1; assay: Cytotoxicity (MTS), Example 6, Capan-1; type: cell-based, human; conditions: Capan-1, 96 h
Protocol: One day prior to adding the ADCs, cells were harvested from tissue culture and plated into 96-well plates. […] Plates were incubated at 37° C. for 96 h. […] Growth inhibition was measured as a percent of growth relative to untreated cells using Microsoft Excel and Prism software (non-linear regression to generate sigmoidal dose response curves which yield IC50-values.

[4] = system: MDA-MB-468 TNBC tumors; assay: MDA-MB-468 TNBC xenograft; type: in vivo, mouse
[5] = esophageal cancer, 4 assessable patients

## IMMU-132
[1]
  PARP cleavage: mediated PARP cleavage
[2]; 8, then 12 and 18 mg/kg, days 1 and 8 of 21-day cycles
  dose-limiting toxicity: dose-limiting neutropenia
[2]; 8 wks for preceding last therapy
  median TTP in PDC patients: 11.9 wks
[2]; 13 CT-assessable PDC patients
  stable disease, PDC: 62%
[2]; 24 assessable patients, Phase I study
  patients with long-term stable disease: Over 80%
[2]; 48 assessable patients (excluding PDC), RECIST/CT
  partial response (PR): 15%
[2]; CRC case, after 10 months of treatment
  maximum reduction: 65%
[2]; CRC case, from 781 ng/mL
  CEA after treatment: 26.5 ng/mL
[2]; CRC, 18 assessable patients
  PD, number of patients: 6
  PR, number of patients: 1
  total response [PR+SD]: 67%
[2]; NSCLC, 5 assessable patients
  PD, number of patients: 1
  PR, number of patients: 1
  total response [PR+SD]: 80%
[2]; SCLC, 4 assessable patients
  PD, number of patients: 2
  PR, number of patients: 2
  total response [PR+SD]: 50%
[2]; TNBC, 8 assessable patients
  PD, number of patients: 2
  PR, number of patients: 2
  total response [PR+SD]: 75%
[2]; all 48 assessable patients
  PD, number of patients: 14
  PR, number of patients: 7
  total response [PR+SD]: 79%
[2]; all 48 assessable patients, listed as hRS7-SN-38
  total response [PR+SD]: 71%
[2]; [5]
  PD, number of patients: 1
  PR, number of patients: 1
  total response [PR+SD]: 75%
[2]; human, in vivo
  time to clearance of conjugate from serum: ≤ 3 days
[2]; in vivo
  Abdominal pain, Grade 3, number of patients: 0
  Abdominal pain, Grade 4, number of patients: 0
  Abdominal pain, TOTAL: 11%
  Alopecia, TOTAL: 40%
  Anemia, Grade 3: (4%)
  Anemia, Grade 3, number of patients: 2
  Anemia, Grade 4, number of patients: 0
  Anemia, TOTAL: 13%
  Deep vein thrombosis, Grade 3: (2%)
  Deep vein thrombosis, Grade 3, number of patients: 1
  Deep vein thrombosis, Grade 4, number of patients: 0
  Deep vein thrombosis, TOTAL: 2%
  Diarrhea, Grade 3: (9%)
  Diarrhea, Grade 3, number of patients: 4
  Diarrhea, Grade 4, number of patients: 0
  Diarrhea, TOTAL: 47%
  Dysgeusia, Grade 3, number of patients: 0
  Dysgeusia, Grade 4, number of patients: 0
  Dysgeusia, TOTAL: 15%
  Fatigue, Grade 3: (9%)
  Fatigue, Grade 3, number of patients: 4
  Fatigue, Grade 4, number of patients: 0
  Fatigue, TOTAL: 55%
  Hypokalemia, Grade 3: (2%)
  Hypokalemia, Grade 3, number of patients: 1
  Hypokalemia, Grade 4, number of patients: 0
  Hypokalemia, TOTAL: 11%
  Nausea, Grade 3, number of patients: 0
  Nausea, Grade 4, number of patients: 0
  Nausea, TOTAL: 53%
  Neutropenia, Grade 3: (24%)
  Neutropenia, Grade 3, number of patients: 11
  Neutropenia, Grade 4, number of patients (%): 2 (4%)
  Neutropenia, TOTAL: 43%
  Pyrexia, Grade 3, number of patients: 0
  Pyrexia, Grade 4, number of patients: 0
  Pyrexia, TOTAL: 13%
  SN-38 in the serum bound to the IgG: > 95%
  Vomiting, Grade 3: (2%)
  Vomiting, Grade 3, number of patients: 1
  Vomiting, Grade 4, number of patients: 0
  Vomiting, TOTAL: 32%
  WBC Decrease, Grade 3: (2%)
  WBC Decrease, Grade 3, number of patients: 1
  WBC Decrease, Grade 4, number of patients: 0
  WBC Decrease, TOTAL: 6%
  anti-hRS7 or anti-SN-38 antibodies: No anti-hRS7 or anti-SN-38 antibodies were detected
  anti-hRS7 or anti-SN-38 antibody response: no anti-hRS7 or anti-SN-38 antibody response has been detected
  clearance of intact conjugate vs IgG: cleared more quickly than the IgG
  diarrhea ≥G3: 9%
  fatigue ≥G3: 9%
  incidence of Grade 3 or higher, all other adverse events: less than 10%
  median time to progression (TTP), PDC: 12.7 wks
  nausea ≥G3: 0%
  neutropenia Grade 4: 4%
  neutropenia ≥Grade 3: 28%
  vomiting ≥G3: 2%
[2]; person, CRC, 8 mg/kg
  reduction in target lesions, first CT: 37%
[2]; person, NSCLC, 5.6 cm at start, after 6th dose
  primary target lesion size at first CT: 3.2 cm
[2]; person, SCLC, 12 mg/kg reduced to 6.8 mg/kg, after two months
  reduction in target lesions: 38%
[2]; remaining 48 patients
  TTP: ≥ 12.6 wks
[3]
  IC50: 3.5 nM
[4]; 0.12 or 0.20 mg/kg SN-38-equivalents, vs saline, irinotecan, hA20-CL2A-SN-38
  tumor response: induced significant tumor regression
[4]; mice progressed on hA20-CL2A-SN-38 (0.74±0.41 cm^3), then 0.2 mg/kg
  total volume [TV] five weeks after re-treatment: 0.14±0.14 cm^3
[4]; one animal each, tumors progressed to ~0.7 cm^3 on irinotecan
  decrease in tumor size after re-treatment: 60%
